# Values joined by “and” are separate entries in the source; they are usually repeats but may differ in a detail not shown here. Identical values can stand only once.
# T1: human Siglec-15 ECD-his protein (Acrobiosystems, Cat #: SG5-H52H3) (human, UniProt Q6ZMC9 20-263)
# T1 construct: Bought protein; only its extracellular domain stood in the assay; also called human Siglec-15 protein; recombinant human Siglec-15 protein; not shown: his tag
# T1 sequence: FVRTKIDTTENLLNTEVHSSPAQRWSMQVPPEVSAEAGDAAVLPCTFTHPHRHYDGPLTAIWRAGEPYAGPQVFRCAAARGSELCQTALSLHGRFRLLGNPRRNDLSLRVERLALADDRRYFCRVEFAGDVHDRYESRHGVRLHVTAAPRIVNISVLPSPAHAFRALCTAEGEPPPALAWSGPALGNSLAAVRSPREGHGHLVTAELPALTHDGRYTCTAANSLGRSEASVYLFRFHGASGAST
# Target: T1, human Siglec-15 ECD-his protein …
# Assay: BLI (Octet RED96), antibody on AHC sensor, Siglec-15 ECD-his as analyte
# Method: Recombinant Human Siglec-15 Protein Affinity was determined using an Octet RED96 instrument (ForteBio) and an anti-human IgG Fc capture sensor (AHC biosensor, ForteBio, Cat #: 18-5060) according to the detailed procedures and methods provided by the manufacturer. Specifically, candidate antibodies were each diluted to a final concentration of 6 µg/mL and directly immobilized on AHC biosensors for kinetic measurements. The antigenic protein Siglec-15 ECD-his protein (Acrobiosystems, Cat #: SG5-H52H3) was diluted with 10× Kinetics buffer to 3 concentrations of 60 nM, 30 nM, and 15 nM separately and injected as the analyte for 120 s with a dissociation time of 400 s and then subjected to regeneration with 10 mM glycine HCl (pH 1.5) for 15 s. The association rate (kon) and dissociation rate (kdis) were calculated using a simple one-to-one Languir binding model (Octet Red96 data analysis software). The equilibrium dissociation constant (kD) was calculated as the ratio of kdis/kon.
Kd,koff,kon,Binder
0.173 nM,6.47e-05 s⁻¹,373000 M⁻¹ s⁻¹,"PR301289 (antibody, human IgG1, kappa, V domains shown, Parent of the PTM variants PR301289-1 and -2) VH: QVQLVQSGAEVKKPGASVKVSCRASGYTFTSYDINWVRQATGQGLEWMGWMNPHSGDTGYAQNFQGRVTMTWNTSISTAYMELSSLRSEDTAVYYCARRRVGVYYYGMDVWGQGTTVTVSS VL: ENVLTQSPGTLSLSPGERATLSCRASQSVSSSYFGWYQQKPGQAPRLLIYGASSRATGIPDRFSGSGSGTDFTLTISRLEPEDFAVYYCQQYGSSPITFGQGTRLEIKR"
< 0.001 nM,< 1e-07 s⁻¹,529000 M⁻¹ s⁻¹,"PR301285 (antibody, human IgG1, kappa, V domains shown) VH: QVQLQESGPGLVKPSETLSLTCTVSGGSMISYYWSWLRQPPGKGLEWIGYIYYSGNTNYNPSLKSRITIAVDTSKNQFSLKLNSVTAADTAVYYCARERELHPYYFDYWGQGTLVTVSS VL: DIQLTQSPSFLSASVGDRVTITCRASQGIDNYLAWYQQKPGKAPKVLIYAASTLQSGVPSRFSGSGSGTEFTLTISSLQPEDFATYYCQQLNSYPLTFGGGTKVEIKR"
< 0.001 nM,< 1e-07 s⁻¹,368000 M⁻¹ s⁻¹ and 292000 M⁻¹ s⁻¹,"PR301286 (antibody, human IgG1, kappa, V domains shown, Parent of the PTM variants PR301286-1, -3, -5, -6, -7) VH: QVQLVESGGGVVQPGKSLRLSCAASGFTFSSYGMHWVRQAPGKGLEWVAVIWIDGSNRYYAASVKGRFTISRDNSKNTLYLQMNSLRAEDTAVYYCTRGYGDYAYVMDVWGQGASVTVSS VL: DIVMTQSPLSLPVTPGEPASISCRSSQSLLPGNGYNYLDWYLQKPGQSPQLLIYLGSNRASGVPDRFSGSGSGTDFTLKISRVEAEDVGIYYCMQALQSPLTFGGGTKVEIKR"
0.13 nM and 0.293 nM,9.5e-05 s⁻¹ and 0.000182 s⁻¹,730000 M⁻¹ s⁻¹ and 621000 M⁻¹ s⁻¹,"PR300066 (Tab) (antibody, human IgG1, kappa, V domains shown, variable region from clone 5G12 of WO 2018/057735A1, on human IgG1/kappa constant regions; also called 5G12) VH: QVQLQQPGAELVKPGASVKMSCKASGYTFTSYWITWVIQRPGQGLEWIGDIYCGSDTMHYNEKFKNKATLTVDTSSSTAYMQLSSLTSEDSAVYYCARWWDYGSSYDYFDYWGQGTTLTVSS VL: DIKMTQSPSSMYASLGERVTITCKASQDINSYLSWFQQKPGKSPKTLIYRANRLVDGVPSRFSGSGSGQDYSLTISSLEYEDMGIYYCLQYDEFPYTFGGGTKLEIKR"

# Source: patent US20260070974A1 (NONA BIOSCIENCES SUZHOU, published 2026)
